In patent US5891438 one finds Protein G Binding (share of CD20 tonsillar cells), Binding (proportion of the total B cells bound by mod-SpA) and SpA Binding (share of CD20 tonsillar cells) data, which are given here for 3 substances.

For test [1], the target named is human tonsillar B cells (CD20+ / CD19+, surface Ig). In words: flow cytometry, dual staining with biotinylated bacterial antigen. Background: Flow cytometry measures light scatter and fluorescence of single cells or particles in a stream.
Test [2] shares this target. Put plainly: flow cytometry, biotinylated mod-SpA on tonsillar B cells; the pair that the inhibitors of Table 5 block.

Protein G (from UniProt P19909) returned a Protein G Binding (share of CD20 tonsillar cells) in test [1] of 9%. Turning to “SpA modified by hyperiodination to destroy IgG Fc binding activity (mod-SpA) (from UniProt P38507)”, the Binding (proportion of the total B cells bound by mod-SpA) in test [2] came out at 15. In test [1], “staphylococcal protein A (SpA), purified recombinant form (from UniProt P38507)” yielded a SpA Binding (share of CD20 tonsillar cells) of 29%.
